Reference: patent publication US20250250357A1 (NANJING ZAIMING PHARMACEUTICAL, published 2025)
Like-named read-outs stand apart in the source and are kept apart here.

T1: monkey MSLN on HEK293T-monkey MSLN recombinant cells (monkey)
T1 construct: Full-length precursor as transfected; processing on the cell is not described; also called HEK293-monkey MSLN
T1 chain: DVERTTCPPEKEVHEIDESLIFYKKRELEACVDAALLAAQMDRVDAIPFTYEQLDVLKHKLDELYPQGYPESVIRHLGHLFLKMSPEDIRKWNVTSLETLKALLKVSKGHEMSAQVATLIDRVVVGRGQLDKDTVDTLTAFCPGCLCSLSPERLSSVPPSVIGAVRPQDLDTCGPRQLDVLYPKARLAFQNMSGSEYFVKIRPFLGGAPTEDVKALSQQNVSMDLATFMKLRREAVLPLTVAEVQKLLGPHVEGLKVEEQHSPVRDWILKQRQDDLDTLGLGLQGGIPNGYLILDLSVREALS


Experiments:
[1] = molecular target: T2, human MSLN on OVCAR3 tumor cells (human, UniProt Q13421 296-598); test: FACS, OVCAR3 cells
T2 construct: whole, on cells; also called human MSLN protein

[2] = molecular target: T3, human MSLN-R3 on HEK293T-hMSLN-R3 recombinant cells (human, UniProt Q13421 487-606); test: FACS, HEK293T-hMSLN-R3 cells
T3 construct: the C-terminal limit is uncertain; also called human MSLN-R3 membrane protein

[3] = molecular target: T1, monkey MSLN on HEK293T-monkey MSLN …; test: FACS, HEK293T-monkey MSLN cells
[4] = molecular target: T2, human MSLN on OVCAR3 tumor cells; test: FACS, OVCAR3 cells; remark: listed apart in the source
[5] = molecular target: T3, human MSLN-R3 on HEK293T-hMSLN-R3 …; test: FACS, HEK293T-hMSLN-R3 cells; remark: listed apart in the source
[6] = molecular target: T1, monkey MSLN on HEK293T-monkey MSLN …; test: FACS, HEK293T-monkey MSLN cells
[7] = molecular target: T4, human MSLN-hFc recombinant protein (human, UniProt Q13421 296-580); test: SPR (Biacore 8K), MSLN-hFc captured, antibody injected
T4 construct: Captured by an anti-human IgG antibody on the chip; also called human MSLN protein; Acro MSN-H5253
T4 sequence (Q13421 other isoform, or with tags, fused parts or gaps): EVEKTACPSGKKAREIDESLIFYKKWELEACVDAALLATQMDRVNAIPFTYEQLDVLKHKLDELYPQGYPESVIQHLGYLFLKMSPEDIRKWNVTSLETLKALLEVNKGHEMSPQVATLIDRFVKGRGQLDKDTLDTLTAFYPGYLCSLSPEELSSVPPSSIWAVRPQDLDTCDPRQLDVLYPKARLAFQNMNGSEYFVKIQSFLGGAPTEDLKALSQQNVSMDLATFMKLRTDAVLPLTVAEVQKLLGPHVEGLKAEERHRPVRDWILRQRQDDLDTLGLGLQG

T3 sequence (Q13421 495-614): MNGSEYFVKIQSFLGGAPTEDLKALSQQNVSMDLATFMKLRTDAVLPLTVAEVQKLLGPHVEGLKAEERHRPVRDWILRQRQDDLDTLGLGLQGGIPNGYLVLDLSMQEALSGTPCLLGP
T2 sequence (Q13421 other isoform, or with tags, fused parts or gaps): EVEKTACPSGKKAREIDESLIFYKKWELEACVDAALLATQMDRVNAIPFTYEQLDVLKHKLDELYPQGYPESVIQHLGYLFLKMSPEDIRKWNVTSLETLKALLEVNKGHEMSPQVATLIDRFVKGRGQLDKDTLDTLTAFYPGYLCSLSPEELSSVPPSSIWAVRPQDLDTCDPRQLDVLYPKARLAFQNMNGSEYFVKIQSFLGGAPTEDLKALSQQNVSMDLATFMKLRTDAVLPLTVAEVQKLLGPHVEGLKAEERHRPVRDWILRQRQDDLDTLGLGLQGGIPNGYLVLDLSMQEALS

EC50 [1] [nM] | Maximum_MFI [1] [MFI] | EC50 [2] [nM] | Maximum_MFI [2] [MFI] | EC50 [3] [nM] | Maximum_MFI [3] [MFI] | EC50 [4] [nM] | Maximum_MFI [4] [MFI] | EC50 [5] [nM] | Maximum_MFI [5] [MFI] | EC50 [6] [nM] | Maximum_MFI [6] [MFI] | Kd [7] [nM] | koff [7] [s⁻¹] | kon [7] [M⁻¹ s⁻¹] | Binder
11 | 4000 | 4.91 | 5820 | 5.31 | 24400 | – | – | – | – | – | – | – | – | – | F2.39.3-H1 (scFv, not shown: small tags and cut ends, also called S009-F2.39.3 humanized antibody VH1 + VL1) scFv: EVQLVQSGAEVKKPGASVKVSCKASGYTFTNYWMHWVRQAPGQGLEWMGNINPSSGDSYYNERFMSRVTMTVDKSTSTVYMELSSLRSEDTAVYYCARSGGLWLAFWGQGTLVTVSSGGGGSGGGGSGGGGSDIVMTQSPDSLAVSLGERATINCKSSQTLLNSVSQNNYLAWYQQKPGQSPKLLIYFASTRESGVPDRFSGSGSGTDFTLTISSLQAEDVAVYYCQQHYRTPYTFGGGTKVEIK
40.3 | 4160 | 6.26 | 5780 | 8.9 | 24100 | – | – | – | – | – | – | – | – | – | F2.39.3-H6 (scFv, not shown: small tags and cut ends, also called S009-F2.39.3 humanized antibody VH2 + VL2) scFv: EVQLVQSGAEVKKPGASVKVSCKASGYTFTNYWMHWVRQAPGQGLEWMGNINPSSGDSYYNERFMSRVTMTVDKSTSTAYMELSSLRSEDTAVYYCARSGGLWLAFWGQGTLVTVSSGGGGSGGGGSGGGGSDIVMTQSPDSLAVSLGERATINCKSSQTLLNSVSQNNYLAWYQQKPGQSPTLLIYFASTRESGVPDRFSGSGSGTDFTLTISSLQAEDVAVYYCQQHYRTPYTFGGGTKVEIK
– | – | – | – | – | – | 2.25 | 2130 | 0.42 | 1590 | 1.46 | 8580 | – | – | – | F7.33.24-H11 (scFv, not shown: small tags and cut ends, also called S009-F7.33.24 humanized antibody VH2a + VL2) scFv: EVQLVQSGAEVKKPGASVKVSCKASGYTFTSYWMHWVRQAPGQGLEWMGNVNPSNAGSNYNEKFKNRVTITVDKSASTAYMELSSLRSEDTAVYYCAPHYIGSRPGFAYWGQGTLVTVSSGGGGSGGGGSGGGGSDIVMTQTPLSLSVTPGQPASISCKASQNVGTNIAWYLQKPGQSPQALIYSASYRYSGVPDRFSGSGSGTDFTLKISRVEAEDVGVYYCQQYNSYPLTFGGGTKVEIK
– | – | – | – | – | – | 2.06 | 2370 | 2.89 | 1970 | 5.33 | 8310 | – | – | – | F7.33.24-H3 (scFv, not shown: small tags and cut ends, also called S009-F7.33.24 humanized antibody VH1 + VL3) scFv: EVQLVQSGAEVKKPGASVKVSCKASGYTFTSYWMHWVRQAPGQRLEWMGNVNPSNGGSNYNEKFKNRVTITVDKSASTAYMELSSLRSEDTAVYYCAPHYIGSRPGFAYWGQGTLVTVSSGGGGSGGGGSGGGGSDIVMTQTPLSLSVTPGQPASISCKASQNVGTNIAWYQQKPGQSPQALIYSASYRYSGVPDRFSGSGSGTDFTLKISRVEAEDVGVYYCQQYNSYPLTFGGGTKVEIK
– | – | – | – | – | – | 2.6 | 2190 | 1.29 | 1470 | 4.08 | 8080 | – | – | – | F7.33.24-H9 (scFv, not shown: small tags and cut ends, also called S009-F7.33.24 humanized antibody VH2 + VL3) scFv: EVQLVQSGAEVKKPGASVKVSCKASGYTFTSYWMHWVRQAPGQGLEWMGNVNPSNGGSNYNEKFKNRVTITVDKSASTAYMELSSLRSEDTAVYYCAPHYIGSRPGFAYWGQGTLVTVSSGGGGSGGGGSGGGGSDIVMTQTPLSLSVTPGQPASISCKASQNVGTNIAWYQQKPGQSPQALIYSASYRYSGVPDRFSGSGSGTDFTLKISRVEAEDVGVYYCQQYNSYPLTFGGGTKVEIK
– | – | – | – | – | – | 3.04 | 2090 | 1.1 | 1560 | 3.94 | 8620 | – | – | – | F7.33.24-H10 (scFv, not shown: small tags and cut ends, also called S009-F7.33.24 humanized antibody VH2a + VL1) scFv: EVQLVQSGAEVKKPGASVKVSCKASGYTFTSYWMHWVRQAPGQGLEWMGNVNPSNAGSNYNEKFKNRVTITVDKSASTAYMELSSLRSEDTAVYYCAPHYIGSRPGFAYWGQGTLVTVSSGGGGSGGGGSGGGGSDIVMTQSPDSLAVSLGERATINCKASQNVGTNIAWYQQKPGQSPKALIYSASYRYSGVPDRFSGSGSGTDFTLTISSLQAEDVAVYYCQQYNSYPLTFGGGTKVEIK

Further lines, the binder ahead of its results:

Binder | EC50 [1] [nM] | Maximum_MFI [1] [MFI] | EC50 [2] [nM] | Maximum_MFI [2] [MFI] | EC50 [3] [nM] | Maximum_MFI [3] [MFI] | EC50 [4] [nM] | Maximum_MFI [4] [MFI] | EC50 [5] [nM] | Maximum_MFI [5] [MFI] | EC50 [6] [nM] | Maximum_MFI [6] [MFI] | Kd [7] [nM] | koff [7] [s⁻¹] | kon [7] [M⁻¹ s⁻¹]
F2.39.3-H5 (scFv, not shown: small tags and cut ends, also called S009-F2.39.3 humanized antibody VH2 + VL1) scFv: EVQLVQSGAEVKKPGASVKVSCKASGYTFTNYWMHWVRQAPGQGLEWMGNINPSSGDSYYNERFMSRVTMTVDKSTSTAYMELSSLRSEDTAVYYCARSGGLWLAFWGQGTLVTVSSGGGGSGGGGSGGGGSDIVMTQSPDSLAVSLGERATINCKSSQTLLNSVSQNNYLAWYQQKPGQSPKLLIYFASTRESGVPDRFSGSGSGTDFTLTISSLQAEDVAVYYCQQHYRTPYTFGGGTKVEIK | 6.37 | 3140 | 4.65 | 5650 | 5.64 | 22500 | – | – | – | – | – | – | – | – | –
F7.33.24-H2 (scFv, not shown: small tags and cut ends, also called S009-F7.33.24 humanized antibody VH1 + VL2) scFv: EVQLVQSGAEVKKPGASVKVSCKASGYTFTSYWMHWVRQAPGQRLEWMGNVNPSNGGSNYNEKFKNRVTITVDKSASTAYMELSSLRSEDTAVYYCAPHYIGSRPGFAYWGQGTLVTVSSGGGGSGGGGSGGGGSDIVMTQTPLSLSVTPGQPASISCKASQNVGTNIAWYLQKPGQSPQALIYSASYRYSGVPDRFSGSGSGTDFTLKISRVEAEDVGVYYCQQYNSYPLTFGGGTKVEIK | – | – | – | – | – | – | 2.07 | 2190 | 1.21 | 1520 | 5.11 | 8170 | 1.83 | 0.000466 | 254000
F7.33.24-H12 (scFv, not shown: small tags and cut ends, also called S009-F7.33.24 humanized antibody VH2a + VL3) scFv: EVQLVQSGAEVKKPGASVKVSCKASGYTFTSYWMHWVRQAPGQGLEWMGNVNPSNAGSNYNEKFKNRVTITVDKSASTAYMELSSLRSEDTAVYYCAPHYIGSRPGFAYWGQGTLVTVSSGGGGSGGGGSGGGGSDIVMTQTPLSLSVTPGQPASISCKASQNVGTNIAWYQQKPGQSPQALIYSASYRYSGVPDRFSGSGSGTDFTLKISRVEAEDVGVYYCQQYNSYPLTFGGGTKVEIK | – | – | – | – | – | – | 0.92 | 2200 | 1.27 | 1330 | 5.07 | 7940 | – | – | –
F7.33.24-H6 (scFv, not shown: small tags and cut ends, also called S009-F7.33.24 humanized antibody VH1a + VL3) scFv: EVQLVQSGAEVKKPGASVKVSCKASGYTFTSYWMHWVRQAPGQRLEWMGNVNPSSGGSNYNEKFKNRVTITVDKSASTAYMELSSLRSEDTAVYYCAPHYIGSRPGFAYWGQGTLVTVSSGGGGSGGGGSGGGGSDIVMTQTPLSLSVTPGQPASISCKASQNVGTNIAWYQQKPGQSPQALIYSASYRYSGVPDRFSGSGSGTDFTLKISRVEAEDVGVYYCQQYNSYPLTFGGGTKVEIK | – | – | – | – | – | – | 1.08 | 2300 | 1.01 | 1540 | 3.54 | 8440 | – | – | –
F7.33.24-H8 (scFv, not shown: small tags and cut ends, also called S009-F7.33.24 humanized antibody VH2 + VL2) scFv: EVQLVQSGAEVKKPGASVKVSCKASGYTFTSYWMHWVRQAPGQGLEWMGNVNPSNGGSNYNEKFKNRVTITVDKSASTAYMELSSLRSEDTAVYYCAPHYIGSRPGFAYWGQGTLVTVSSGGGGSGGGGSGGGGSDIVMTQTPLSLSVTPGQPASISCKASQNVGTNIAWYLQKPGQSPQALIYSASYRYSGVPDRFSGSGSGTDFTLKISRVEAEDVGVYYCQQYNSYPLTFGGGTKVEIK | – | – | – | – | – | – | 1.8 | 2250 | 1.52 | 1400 | 4.6 | 8000 | 1.32 | 0.000529 | 402000
F7.33.24-H5 (scFv, not shown: small tags and cut ends, also called S009-F7.33.24 humanized antibody VH1a + VL2) scFv: EVQLVQSGAEVKKPGASVKVSCKASGYTFTSYWMHWVRQAPGQRLEWMGNVNPSSGGSNYNEKFKNRVTITVDKSASTAYMELSSLRSEDTAVYYCAPHYIGSRPGFAYWGQGTLVTVSSGGGGSGGGGSGGGGSDIVMTQTPLSLSVTPGQPASISCKASQNVGTNIAWYLQKPGQSPQALIYSASYRYSGVPDRFSGSGSGTDFTLKISRVEAEDVGVYYCQQYNSYPLTFGGGTKVEIK | – | – | – | – | – | – | 2.78 | 2420 | 1.35 | 1470 | 4.98 | 8430 | 1.06 | 0.000435 | 409000
